Laboratory results published in patent publication US12043658B2, “Conjugate comprising an active MMP-9-binding peptide” (Daiichi Sankyo Company, Limited, priority 2017, dated 2024).

B1: wild type SPINK2: Serine Protease Inhibitor Kazal-type 2, human, SEQ ID NO: 1 (FIG. 15) (protein, listed as Homo sapiens)
chain: DPQFGLFSKYRTPNCSQYRLPGCPRHFNPVCGSDMSTYANECTLCMKIREGGHNIKIIRNGPC
B2: M91002_G2: C-terminal derivative of M91002: Stag+linker 2 at the N-terminal, C-terminal 2-mer Gly-Gly (protein)
chain: GSGMKETAAAKFERQHMDSPDLGTDDDDKAMAENLYFQGDPQFGLFSKYRTPNCRTGRGPACQMGFQPVCGSDMSTYANECTLCMKIREGGHNIKIIRNGPCGG
B3: M91002_G3: C-terminal derivative of M91002: Stag+linker 2 at the N-terminal, C-terminal 3-mer Gly-Gly-Gly (protein)
chain: GSGMKETAAAKFERQHMDSPDLGTDDDDKAMAENLYFQGDPQFGLFSKYRTPNCRTGRGPACQMGFQPVCGSDMSTYANECTLCMKIREGGHNIKIIRNGPCGGG
B4: M91005_D1G-Fc-01: N-terminal derivative Fc conjugate: Stag+linker 1, M91005_D1G, C-terminal 6-mer, G4S linker and human IgG1 Fc (protein)
chain: GSGMKETAAAKFERQHMDSPDLGTDDDDKAMADIGSANSGPQFGLFSKYRTPNCRKRGGPSCQMSYNPVCGSDMSTYANECTLCMKIREGGHNIKIIRNGPCGASAAAGGGGSDKTHTCPPCPAPELLGGPSVFLFPPKPKDTLMISRTPEVTCVVVDVSHEPEVKFNWYVDGVEVHNAKTKPREEQYNSTYRVVSVLTVLHQDWLNGKEYCKVSNKALPAPIEKTISKAKGQPREPQVYTLPPSREEMTKNQVSLTCLVGFYPSDIAVEWESNGQPENNYKTTPPVLDSDGSFFLYSKLTVDKSRWQQNVFSCSVMHEALHNHYTQKSLSLSPGK
B5: M91002_G0: C-terminal derivative of M91002: Stag+linker 2 at the N-terminal, no C-terminal addition (protein)
chain: GSGMKETAAAKFERQHMDSPDLGTDDDDKAMAENLYFQGDPQFGLFSKYRTPNCRTGRGPACQMGFQPVCGSDMSTYANECTLCMKIREGGHNIKIIRNGPC
modifications: linker; binder
notes: C-terminal derivative of M91002: Stag+linker 2 at the N-terminal, no C-terminal addition

Assays:
[1] = target: T1, human MMP-9 enzyme active domain E402Q mutant (Homo sapiens, UniProt P14780, E402Q); assay: Size exclusion chromatography binding to hMMP-9(cat)_E402Q_His6; details: 25 μM enzyme, 75 μM inhibitor
T1 construct: an enzyme active domain E402Q mutant (Phe107-Pro449, E402Q) and a His tag; made in house; host or cells: FreeStyle 293F
T1 sequence (P14780 107-449 E402Q): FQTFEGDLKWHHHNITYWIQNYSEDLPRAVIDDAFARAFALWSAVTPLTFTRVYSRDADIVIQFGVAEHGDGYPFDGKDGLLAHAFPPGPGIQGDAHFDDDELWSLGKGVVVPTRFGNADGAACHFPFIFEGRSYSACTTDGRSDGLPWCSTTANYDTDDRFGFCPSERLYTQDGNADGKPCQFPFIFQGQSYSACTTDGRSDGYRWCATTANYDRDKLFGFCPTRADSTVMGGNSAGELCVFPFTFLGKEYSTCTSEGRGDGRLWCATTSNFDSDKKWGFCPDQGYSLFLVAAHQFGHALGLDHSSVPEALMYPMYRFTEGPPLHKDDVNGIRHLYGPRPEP
Procedure: (§1) With M91005 and M91011 prepared in (1-2), active hMMP-9(cat)_His6 prepared in (2-1-4), and hMMP-9(cat)_E402Q_His6 prepared in (11-3), the binding activity was evaluated by size exclusion chromatography. 25 μM active hMMP-9(cat)_His6 or hMMP-9(cat)_E402Q_His6 and 75 μM active MMP-9-binding peptide or hTIMP-1 (in-house preparation) were mixed, and reacted at 4° C. for 1 hour. After the reaction, 10 μl of the reaction solution was analyzed by size exclusion chromatography. The chromatographic conditions were as follows.
(§2) Detection: Absorbance (280 nm)
(§3) When only active hMMP-9(cat)_His6 was analyzed, the peak of active hMMP-9(cat)_His6 was detected at a retention time of 7.0 minutes (FIG. 53(A)). When a mixture reaction solution of active hMMP-9(cat)_His6 and hTIMP-1 or active MMP-9-binding peptides M91005 or M91011 was analyzed, the retention time of the peak of active hMMP-9(cat)_His6 was shifted to the high molecular weight side (FIG. 53(A)). […] When only human MMP-9(cat)_E402Q_His6 was analyzed, the peak of hMMP-9(cat)_E402Q_His6 was detected at a retention time of 7.1 minutes (FIG. 53(B)). When a mixed reaction solution of human MMP-9(cat)_E402Q_His6 and hTIMP-1 was analyzed, the retention time of the peak of hMMP-9(cat)_E402Q_His6 was shifted to the high molecular weight side (FIG. 53(B)). […] In contrast, when a mixture reaction solution of hMMP-9(cat)_E402Q_His6 and the active MMP-9-binding peptide M91005 or M91011 was analyzed, the retention time of the peak of the hMMP-9(cat)_E402Q_His6 was not changed (FIG. 53(B)). It should be noted that when only hTIMP-1 or the active MMP-9-binding peptides M91005, M91011 was analyzed, the peak of hTIMP-1 was detected at a retention time of 7.3 minutes, the peak of the active MMP-9-binding peptide M91005 was detected at a retention time of 8.2 minutes, and the peak of the active MMP-9-binding peptide M91011 was detected at a retention time of 8.1 minutes (FIG. 53(C)).

[2] = target: T2, active human MMP-9 enzyme active domain (Homo sapiens, UniProt P14780); assay: Size exclusion chromatography binding to active hMMP-9(cat)_His6; set-up: an enzyme active domain (Phe107-Pro449) and a His tag; made in house; host or cells: FreeStyle 293F; details: 25 μM enzyme, 75 μM inhibitor
T2 sequence (P14780 107-449): as the sequence (P14780 107-449 E402Q) above, with Q296E counted along it
Procedure: as §1, §2, §3

[3] = target: T2, active human MMP-9 enzyme active domain; assay: ELISA binding to immobilized active human MMP-9 enzyme active domain; details: 1 to 1,000 nM peptide, S-tag detection
Procedure: (§4) The biotin-labeled pro-hMMP-9(cat)_His6_FLAG_Avi obtained in (2-1-6) or biotin-labeled active hMMP-9(cat)_FLAG_Avi obtained in (2-1-7) was immobilized on a streptavidin coated 96-well plate (Thermo Fisher Scientific). After blocking with 3% BSA, 1 to 1,000 nM of the binding peptides were added, and reacted at room temperature for 1.5 hours. After washing, goat anti-S-Tag HRP conjugated (Bethyl Laboratories, Inc.) was added, and reacted at room temperature for 1 hour. After washing, substrates of ELISA POD substrate A.B.T.S kit (Nacalai Tesque Inc.) were added, and reacted at room temperature. After adding a reaction stop solution, the absorbance at 405 nm was measured with Enspire (PerkinElmer, Inc.), and MMP-9-binding activity of the active MMP-9-binding peptides was evaluated.

[4] = target: T3, pro human MMP-9 enzyme active domain (Homo sapiens, UniProt P14780); assay: ELISA binding to immobilized pro human MMP-9 enzyme active domain; details: 1 to 1,000 nM peptide, S-tag detection
T3 construct: a propeptide (Ala20-Arg106), an enzyme active domain (Phe107-Pro449), a FLAG tag; made in house; host or cells: FreeStyle 293F
T3 sequence (P14780 20-449): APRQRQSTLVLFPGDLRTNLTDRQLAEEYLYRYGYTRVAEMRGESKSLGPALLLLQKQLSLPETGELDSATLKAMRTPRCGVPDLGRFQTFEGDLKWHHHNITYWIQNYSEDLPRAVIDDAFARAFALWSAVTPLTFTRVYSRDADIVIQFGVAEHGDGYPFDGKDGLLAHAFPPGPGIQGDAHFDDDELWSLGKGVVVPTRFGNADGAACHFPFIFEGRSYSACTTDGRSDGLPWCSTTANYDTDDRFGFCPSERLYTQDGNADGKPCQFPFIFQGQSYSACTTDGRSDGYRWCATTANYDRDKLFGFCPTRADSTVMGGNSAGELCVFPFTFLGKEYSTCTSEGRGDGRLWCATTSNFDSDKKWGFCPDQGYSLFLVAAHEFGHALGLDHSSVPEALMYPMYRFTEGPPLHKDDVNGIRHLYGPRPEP
Procedure: as §4

[5] = target: T4, human MMP-9 (active hMMP-9(cat)_His6) (Homo sapiens, UniProt P14780); assay: Human MMP-9 inhibitory activity of active MMP-9-binding peptide derivatives (substrate peptide); type: biochemical; details: 0.6 nM active hMMP-9(cat)_His6
T4 construct: an enzyme active domain (Phe107-Pro449) and a His tag; made in house; host or cells: FreeStyle 293F
T4 sequence (P14780 107-449): as the sequence (P14780 107-449 E402Q) above, with Q296E counted along it
Procedure: The substrate peptide MOCAc-KPLGL-A2pr (Dnp)-AR-NH2 (SEQ ID NO: 30 (FIG. 46)) (PEPTIDE […], INC.; 3226-v) was dissolved in water to 1 mM, and diluted with an assay buffer (50 mM Tris-HCl, 200 mM NaCl, 2 mM CaCl2, pH 7.5) to use at a final concentration of 2.5 to 10 μM. Fifty μl each of the active hMMP-9(cat)_His6 diluted with the assay buffer and the active MMP-9-binding peptide were mixed, and reacted at 37° C. for 1 hour. Then, 100 μl of the substrate diluted with the assay buffer was added, and fluorescence signals (excitation 328 nm/emission 393 nm) were measured with Enspire (PerkinElmer, Inc.). The final concentration of active hMMP-9(cat)_His6 was 0.4 nM, and the final concentration of the active MMP-9-binding peptide was 0.5 to 25 nM. For reactions and measurements, a ProteoSave™ SS96F black plate (Sumitomo Bakelite Co., Ltd.) was used.
According to the method described in (4-1), human MMP-9 inhibitory activity of each of the binding peptides was evaluated with 0.6 nM final concentration of active hMMP-9(cat)_His6 and 0.0015 to 100 nM final concentration of each active MMP-9-binding peptide (FIGS. 11(A), 12(A), and 13(A)).

| Molecule | human MMP-9 inhibitory activity IC50 compared with parent [5] | further results |
| --- | --- | --- |
| hTIMP-1: hTIMP-1 (in-house preparation) [reference compound] |  | binding to human MMP-9 enzyme active domain E402Q mutant (peak shift) [1]: binds to the human MMP-9 enzyme active domain E402Q mutant; binding to active human MMP-9 enzyme active domain (peak shift) [2]: bind to the active human MMP-9 enzyme active domain |
| B1 |  | active human MMP-9-binding activity (EC50) [3]: did not bind; pro human MMP-9-binding activity [4]: did not bind |
| B2 | equivalent to that of M91002 |  |
| B3 | equivalent to that of M91002 |  |
| B4 | M91005-Fc-01 and M91005_D1G-Fc-01 are equivalent |  |
| B5 | equivalent to that of M91002 |  |
